According to US20210180049A1 (CHUGAI SEIYAKU KABUSHIKI KAISHA, priority 2013, published 2021):

What was measured:
[1] = SPR (Biacore T200) binding of 6RNMSC1-2_F02 and variants to kynurenine; conditions: for Kd / ka for kynurenine / kd for kynurenine: Biacore T200, 15° C., 5% DMSO
Protocol: An appropriate amount of protein A (Invitrogen) was immobilized onto Sensor chip CM4 (GE Healthcare) by the amine coupling method. The antibody of interest was captured thereon, and the antigen kynurenine and derivatives thereof were allowed to interact. The running buffer used was 50 mmol/L Tris-HCl, 150 mmol/L NaCl, 0.02% (w/v) Tween 20, 5% DMSO, pH 7.6. All measurements were carried out at 15° C. The antigens were diluted with the running buffer.
Then, the running buffer was run at a flow rate of 30 μL/min for 60 seconds to observe the dissociation of antigens from the antibody. Kinetic parameters, the association rate constant ka (1/Ms) and the dissociation rate constant kd (l/s), were calculated based on the sensorgrams obtained by the measurements. The dissociation constant KD (M) was calculated from these constants. Each parameter was calculated using Biacore T200 Evaluation Software (GE Healthcare).
(§1) Meanwhile, the type of sensor chip immobilized with Protein A was changed to Sensor chip Series S CM3 (GE Healthcare) to measure some of the variants. When kynurenine dissociation was too fast to determine the dissociation rate constant, a dissociation constant KD (M) was calculated by analysis of equilibrium values based on the degree of binding response during the interaction with each antigen (association phase). In this case also, Biacore T200 Evaluation Software (GE Healthcare) was used to calculate the parameters.
as §1
(§2) When kynurenine dissociation was too fast to determine the dissociation rate constant, the dissociation constant KD (M) was calculated by analysis of equilibrium values based on the degree of binding response when it is interacted with each antigen (association phase). Also in this case, the Biacore T200 Evaluation Software (GE Healthcare) was used to calculate parameters. […] Each variant and its parental antibody F02h011/F021003 were compared in terms of the KD value for kynurenine.
as §2, with “analyzing” for “analysis of”, “sequence” for “antibody”

Protocol for Tm measurement by DSC: Measurement by DSC was carried out by a method known to those skilled in the art.
DSC measurement was carried out by a method known to those skilled in the art.

Molecule | Tm (Tm measurement by DSC) | kynurenine binding (in words) ([1]; Biacore) | Kd [1] | ka for kynurenine [1] | kd for kynurenine [1]
F02h011/F021003: 6RNMSC1-2_F02 with framework restored to germline; variable regions SEQ ID NO: 95 and 96 (antibody, V domains shown) VH: QVQLVQSGAEVKKPGSSVKVSCKASGGTFSSYAISWVRQAPGQGLEWMGGIIPIFGTANYAQKFQGRVTITADESTSTAYMELSSLRSEDTAVYYCARDAPVVARPRGAFDIWGQGTLVTVSS VL: DIVMTQSPLSLPVTPGEPASISCRSSQSLVHSDGNTYLSWYLQKPGQSPQLLIYEISNRFSGVPDRFSGSGSGTDFTLKISRVEAEDVGVYYCMQATQFPRTFGQGTKVEIK | 85.2 °C | retain kynurenine binding | 110 µM | 3664 M⁻¹ s⁻¹ | 0.40 L/s
F02h011/F021098: F02h011/F021003 with Lch_Ser56Tyr; variable regions SEQ ID NO: 95 and 97 (antibody, V domains shown) VH: QVQLVQSGAEVKKPGSSVKVSCKASGGTFSSYAISWVRQAPGQGLEWMGGIIPIFGTANYAQKFQGRVTITADESTSTAYMELSSLRSEDTAVYYCARDAPVVARPRGAFDIWGQGTLVTVSS VL: DIVMTQSPLSLPVTPGEPASISCRSSQSLVHSDGNTYLSWYLQKPGQSPQLLIYEISNRFYGVPDRFSGSGSGTDFTLKISRVEAEDVGVYYCMQATQFPRTFGQGTKVEIK |  |  | 72 µM | 3686 M⁻¹ s⁻¹ | 0.26 L/s
